What follows are sequences tested on Escherichia coli TOP10 (assay: shrunken log2 fold change of peptide-encoding DNA abundance (4.5 h post-induction vs induction); higher = less antimicrobial activity (less host growth inhibition)). Settings: time post-induction: 4.5 h; library: site-saturation at positions 5, 18, 19, 20.
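Further: peptides expressed intracellularly from a pBAD plasmid library in pooled LB shake-flask culture, induced with 0.3% L-arabinose, DNA abundance read by NGS, three biological replicates, DESeq2 with apeglm shrinkage.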

| Sequence | shrunken log2 fold change |
| --- | --- |
| RRIRFRPPRLPRPRPRPPDGPRP | 0.209 |
| RRIRYRPPRLPRPRPRPYKGPRP | -0.721 |
| RRIRYRPPRLPRPRPRPTWRPRP | 0.104 |
| RRIRGRPPRLPRPRPRPCMYPRP | 0.013 |
| RRIRHRPPRLPRPRPRPIRLPRP | -0.0644 |
| RRIRWRPPRLPRPRPRPVFWPRP | 0.386 |
| RRIRARPPRLPRPRPRPPICPRP | -0.0154 |
| RRIRCRPPRLPRPRPRPDFSPRP | -0.377 |
| RRIRHRPPRLPRPRPRPLGYPRP | -0.0228 |
| RRIRERPPRLPRPRPRPYVMPRP | -0.401 |
| RRIRQRPPRLPRPRPRPILDPRP | 0.0277 |
| RRIRKRPPRLPRPRPRPLETPRP | 0.361 |
| RRIRYRPPRLPRPRPRPTADPRP | -0.119 |
| RRIRWRPPRLPRPRPRPWKTPRP | 0.149 |
| RRIRARPPRLPRPRPRPDQVPRP | 0.359 |
| RRIRRRPPRLPRPRPRPRPPPRP | 0.931 |
| RRIRCRPPRLPRPRPRPMHYPRP | -0.24 |
| RRIRCRPPRLPRPRPRPGWHPRP | 0.269 |
| RRIRHRPPRLPRPRPRPGEEPRP | 0.03 |
| RRIRFRPPRLPRPRPRPVDCPRP | -0.0595 |
| RRIRFRPPRLPRPRPRPTWVPRP | 0.156 |
| RRIRSRPPRLPRPRPRPCGEPRP | 0.385 |

| Sequence | shrunken log2 fold change |
| --- | --- |
| RRIRCRPPRLPRPRPRPIVMPRP | -0.235 |
| RRIRLRPPRLPRPRPRPHWLPRP | -0.0104 |
| RRIRHRPPRLPRPRPRPFYCPRP | -0.946 |
| RRIRPRPPRLPRPRPRPRRAPRP | 0.525 |
| RRIRRRPPRLPRPRPRPPGKPRP | 0.978 |
| RRIRRRPPRLPRPRPRPCPSPRP | 0.0616 |
| RRIRNRPPRLPRPRPRPEQTPRP | 0.235 |
| RRIRMRPPRLPRPRPRPSISPRP | 0.000307 |
| RRIRFRPPRLPRPRPRPDCLPRP | -0.0266 |
| RRIRFRPPRLPRPRPRPHHKPRP | -0.462 |
| RRIRVRPPRLPRPRPRPSVMPRP | -0.15 |
| RRIRDRPPRLPRPRPRPHNIPRP | -0.53 |
| RRIRKRPPRLPRPRPRPMMAPRP | 0.255 |
| RRIRCRPPRLPRPRPRPSVVPRP | -0.261 |
| RRIRKRPPRLPRPRPRPACAPRP | 1 |
| RRIRWRPPRLPRPRPRPWTIPRP | -0.0951 |
| RRIRARPPRLPRPRPRPKLKPRP | 0.272 |
| RRIRWRPPRLPRPRPRPQRTPRP | -0.0113 |
| RRIRGRPPRLPRPRPRPSDLPRP | 0.0731 |
| RRIRDRPPRLPRPRPRPKDRPRP | 0.0874 |
| RRIRRRPPRLPRPRPRPSSDPRP | 0.0273 |
| RRIRKRPPRLPRPRPRPVNRPRP | 0.0352 |

| Sequence | shrunken log2 fold change |
| --- | --- |
| RRIRARPPRLPRPRPRPVWMPRP | 0.0552 |
| RRIRTRPPRLPRPRPRPGNMPRP | -0.0393 |
| RRIRLRPPRLPRPRPRPMIFPRP | 0.0629 |
| RRIRVRPPRLPRPRPRPTIWPRP | -0.0331 |
| RRIRLRPPRLPRPRPRPFMDPRP | -0.361 |
| RRIRLRPPRLPRPRPRPINYPRP | -0.857 |
| RRIRFRPPRLPRPRPRPKRVPRP | 0.598 |
| RRIRNRPPRLPRPRPRPGIAPRP | 0.0989 |
| RRIRVRPPRLPRPRPRPKEFPRP | 0.0951 |
| RRIRIRPPRLPRPRPRPQVTPRP | -0.4 |
| RRIRWRPPRLPRPRPRPITEPRP | -0.355 |
| RRIRHRPPRLPRPRPRPQPMPRP | -0.109 |
| RRIRRRPPRLPRPRPRPMNVPRP | -0.156 |
| RRIRKRPPRLPRPRPRPAGKPRP | 0.582 |
| RRIRKRPPRLPRPRPRPMLYPRP | -0.26 |
| RRIRCRPPRLPRPRPRPWIVPRP | -0.0435 |
| RRIRLRPPRLPRPRPRPLCEPRP | 0.0911 |
| RRIRPRPPRLPRPRPRPYPRPRP | 0.0824 |
| RRIRYRPPRLPRPRPRPDWTPRP | 0.0173 |
| RRIRKRPPRLPRPRPRPDSCPRP | -0.0303 |
| RRIRERPPRLPRPRPRPQYPPRP | -0.208 |
| RRIRTRPPRLPRPRPRPPPFPRP | 0.452 |

| Sequence | shrunken log2 fold change |
| --- | --- |
| RRIRMRPPRLPRPRPRPDPTPRP | 0.0984 |
| RRIRSRPPRLPRPRPRPKNEPRP | -0.011 |
| RRIRWRPPRLPRPRPRPIQLPRP | -0.304 |
| RRIRCRPPRLPRPRPRPWNEPRP | -0.705 |
| RRIRIRPPRLPRPRPRPICFPRP | -0.152 |
| RRIRTRPPRLPRPRPRPVKMPRP | -0.0502 |
| RRIRSRPPRLPRPRPRPYWFPRP | -0.624 |
| RRIRKRPPRLPRPRPRPSLRPRP | -0.278 |
| RRIRERPPRLPRPRPRPPGYPRP | -0.175 |
| RRIRNRPPRLPRPRPRPPIPPRP | -0.0646 |
| RRIRWRPPRLPRPRPRPGDRPRP | 0.468 |
| RRIRERPPRLPRPRPRPAEEPRP | -0.175 |
| RRIRQRPPRLPRPRPRPWLMPRP | -0.102 |
| RRIRKRPPRLPRPRPRPGTWPRP | 0.315 |
| RRIRQRPPRLPRPRPRPGMEPRP | 0.0952 |
| RRIRARPPRLPRPRPRPIWCPRP | 0.00499 |
| RRIRPRPPRLPRPRPRPWQDPRP | 0.115 |
| RRIRMRPPRLPRPRPRPDFNPRP | 0.0763 |
| RRIRARPPRLPRPRPRPNADPRP | 0.825 |
| RRIRCRPPRLPRPRPRPACFPRP | 0.0497 |
| RRIRMRPPRLPRPRPRPPGRPRP | 0.849 |
| RRIRSRPPRLPRPRPRPRNFPRP | 0.146 |

| Sequence | shrunken log2 fold change |
| --- | --- |
| RRIRSRPPRLPRPRPRPMPAPRP | 0.26 |
| RRIRVRPPRLPRPRPRPRQWPRP | 0.236 |
| RRIRVRPPRLPRPRPRPDPFPRP | 0.0836 |
| RRIRTRPPRLPRPRPRPWLDPRP | -0.181 |
| RRIRRRPPRLPRPRPRPPKPPRP | 0.824 |
| RRIRERPPRLPRPRPRPCNKPRP | -0.858 |
| RRIRIRPPRLPRPRPRPPFIPRP | -0.755 |
| RRIRFRPPRLPRPRPRPQPTPRP | 0.597 |
| RRIRLRPPRLPRPRPRPMQIPRP | 0.057 |
| RRIRTRPPRLPRPRPRPLQNPRP | 0.163 |
| RRIRIRPPRLPRPRPRPMARPRP | -0.153 |
| RRIRYRPPRLPRPRPRPLRDPRP | 0.0739 |
| RRIRMRPPRLPRPRPRPHGCPRP | 0.669 |
| RRIRNRPPRLPRPRPRPKACPRP | -0.00921 |
| RRIRGRPPRLPRPRPRPIWCPRP | 0.0438 |
| RRIRFRPPRLPRPRPRPFVTPRP | -0.442 |
| RRIRSRPPRLPRPRPRPFIHPRP | -0.154 |
| RRIRFRPPRLPRPRPRPCNCPRP | -0.166 |
| RRIRYRPPRLPRPRPRPSINPRP | -0.39 |
| RRIRFRPPRLPRPRPRPRATPRP | 0.691 |
| RRIRPRPPRLPRPRPRPRPGPRP | 0.555 |
